# Assay results published in patent EP2287285A2 (UAB RESEARCH FOUNDATION, dated 2011).
# T1: TRAIL-R3 (DcR-1)/hIgG1 fusion protein (human, UniProt O14798 26-236, limits assumed)
# T1 sequence (looked up): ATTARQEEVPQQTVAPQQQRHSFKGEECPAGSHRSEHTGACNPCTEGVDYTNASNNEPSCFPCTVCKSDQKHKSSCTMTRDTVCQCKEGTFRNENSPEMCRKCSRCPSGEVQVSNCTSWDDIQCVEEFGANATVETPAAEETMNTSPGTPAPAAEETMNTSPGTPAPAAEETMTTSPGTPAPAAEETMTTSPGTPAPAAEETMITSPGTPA
# T2: TRAIL-R4 (DcR-2)/hIgG1 fusion protein (human, UniProt Q9UBN6 56-211, limits assumed)
# T2 sequence (looked up): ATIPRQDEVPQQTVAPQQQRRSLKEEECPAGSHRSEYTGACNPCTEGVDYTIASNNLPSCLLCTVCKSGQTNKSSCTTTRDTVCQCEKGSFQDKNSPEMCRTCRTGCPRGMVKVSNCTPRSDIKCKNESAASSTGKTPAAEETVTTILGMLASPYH
# T3: CD95/hIgG1 (soluble form of human Fas) (human, UniProt P25445 26-173, limits assumed)
# T3 construct: Provided by Amgen; also called Fas (CD95)
# T3 sequence (looked up): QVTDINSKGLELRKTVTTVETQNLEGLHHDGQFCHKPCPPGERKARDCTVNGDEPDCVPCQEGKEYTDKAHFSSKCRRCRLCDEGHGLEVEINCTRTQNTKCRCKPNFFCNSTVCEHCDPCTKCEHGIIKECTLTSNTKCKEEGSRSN
# T4: soluble TNFRI (soluble form of human TNFR1) (human, UniProt P19438 41-201, limits assumed)
# T4 construct: Provided by Amgen; an Fc part is therefore uncertain and not written; also called TNF receptor I
# T4 sequence (looked up): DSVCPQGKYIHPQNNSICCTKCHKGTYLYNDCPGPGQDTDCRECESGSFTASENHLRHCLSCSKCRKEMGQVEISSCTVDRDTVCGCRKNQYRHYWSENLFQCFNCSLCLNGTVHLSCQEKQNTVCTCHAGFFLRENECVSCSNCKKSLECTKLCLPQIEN
# Key:
# [1] = target: T5, DR4/hIgG1 (TRAIL-R1) fusion protein (human, UniProt O00220 24-239, limits assumed); assay: ELISA on plates coated with 2 µg/ml DR4-Ig, HRP anti-Flag detection
# T5 construct: also called DR4-Ig
# [2] = target: T6, human DR5/hIgG1 fusion protein (immunogen); residues 1-180 of the extracellular portion of DR5 fused to the … (human, UniProt O14763 56-180); assay: ELISA on coated DR5-Ig, one-site binding model, non-linear regression
# T6 construct: range 1-180; also called DR5-IgG; DR5-IgG1
# [3] = target: T7, murine DR5/hIgG1 fusion protein (murine; human, UniProt Q9QZM4 53-180, limits assumed); assay: ELISA, absorbance 450 nm/650 nm (Fig. 1a, column 8 of lower panel)
# T7 construct: also called murine homologue of DR5
# [4] = target: T1, TRAIL-R3 (DcR-1)/hIgG1 fusion protein; assay: Western blot, 0.5 µg of each protein
# [5] = target: T2, TRAIL-R4 (DcR-2)/hIgG1 fusion protein; assay: Western blot, 0.5 µg of each protein
# [6] = target: T3, CD95/hIgG1 (soluble form of human Fas); assay: Western blot, 0.5 µg of each protein
# [7] = target: T4, soluble TNFRI (soluble form of human …); assay: Western blot, 0.5 µg of each protein
# [8] = target: T8, human DR4, full length, on the cell surface (Cos-7 cells transfected with full-length DR4 cDNA); human cell … (human, UniProt O00220 24-468); assay: flow cytometry of transfected Cos-7 cells (Fig. 1c)
# T8 construct: whole, on cells; also called cell surface DR4
# [9] = target: T5, DR4/hIgG1 (TRAIL-R1) fusion protein; assay: ELISA on plates coated with 2 µg/ml DR4-Ig (Fig. 1b, middle panel)
# [10] = target: T9, human DR5, full length, on the cell surface (Cos-7 cells transfected with full-length human DR5 cDNA); human … (human, UniProt O14763 56-440); assay: radioisotope labeled TRA-8 on a breast cancer cell line in vitro
# T9 construct: whole, on cells; also called cell surface DR5; human DR5 antigen
Binder,binding result [1],Kd [2],binding result [3],binding result [4],binding result [5],binding result [6],binding result [7],binding result [8],binding result [9],Kd [10]
"soluble recombinant human TRAIL (Alexis): extracellular domain of human TRAIL (aa residues 95 to 281) fused at the N-terminus to a FLAG-tag and an 8 amino acid … (ligand, UniProt P50591 95-281, looked up, range 95-281; Bought reagent; also called TRAIL-FLAG; soluble TRAIL; not shown: FLAG tag; 8 amino acid linker peptide) TSEETISTVQEKQQNISPLVRERGPQRVAAHITGTRGRSNTLSSPNSKNEKALGRKINSWESSRSGHSFLSNLHLRNGELVIHEKGFYYIYSQTYFRFQEEIKENTKNDKQMVQYIYKYTSYPDPILLMKSARNSCWSKDAEYGLYSIYQGGIFELKENDRIFVSVTNEHLIDMDHEASFFGAFLVG",binds,–,–,–,–,–,–,–,–,–
"TRA-8 monoclonal anti-human DR5 antibody (mouse-mouse hybridoma TRA-8, ATCC PTA-1428) (antibody, mouse IgG1, kappa, V domains shown, also called anti-DR5 antibody (clone: TRA-8)) VH: EVMLVESGGGLVKPGGSLKLSCAASGFTFSSYVMSWVRQTPEKRLEWVATISSGGSYTYYPDSVKGRFTISRDNAKNTLYLQMSSLRSEDTAMYYCARRGDSMITTDYWGQGTTLTVSS VL: DIVMTQSHKFMSTSVGDRVSITCKASQDVGTAVAWYQQKPGQSPKLLIYWASTRHTGVPDRFTGSGSGTDFTLTISNVQSEDLADYFCQQYSSYRTFGGGTKLEIKR",–,3 nM,no binding,no binding (tested: 1 µg/ml),no binding (tested: 1 µg/ml),no binding (tested: 1 µg/ml),no binding (tested: 1 µg/ml),no binding,no binding,3 nM
